# In publication PMC9367181 (Chemico-Biological Interactions, 2022):
# Positions count from the first letter of the chain named. Names may count otherwise.
# B1: human carboxylesterase 1 (Homo sapiens) (protein)
# chain: GHPSSPPVVDTVHGKVLGKFVSLEGFAQPVAIFLGIPFAKPPLGPLRFTPPQPAEPWSFVKNATSYPPMCTQDPKAGQLLSELFTNRKENIPLKLSEDCLYLNIYTPADLTKKNRLPVMVWIHGGGLMVGAASTYDGLALAAHENVVVVTIQYRLGIWGFFSTGDEHSRGNWGHLDQVAALRWVQDNIASFGGNPGSVTIFGESAGGESVSVLVLSPLAKNLFHRAISESGVALTSVLVKKGDVKPLAEQIAITAGCKTTTSAVMVHCLRQKTEEELLETTLKMKFLSLDLQGDPRESQPLLGTVIDGMLLLKTPEELQAERNFHTVPYMVGINKQEFGWLIPMQLMSYPLSEGQLDQKTAMSLLWKSYPLVCIAKELIPEATEKYLGGTDDTVKKKDLFLDLIADVMFGVPSVIVARNHRDAGAPTYMYEFQYRPSFSSDMKPKTVIGDHGDELFSVFGAPFLKEGASEEEIRLSKMVMKFWANFARNGNPNGEGLPHWPEYNQKEGYLQIGANTQAAQKLKDKEVAFWTNLFAKKAVEKPPQTEHIEL
# B2: human carboxylesterase 1 (Homo sapiens; G143E) (protein)
# chain: B1 chain with G126E
# Legend:
# human carboxylesterase 1 = molecular target: T1, human carboxylesterase 1 (Homo sapiens, UniProt P23141); test: inhibition of remdesivir hydrolysis in CES1-expressing cell S9 fraction, HPLC; type: biochemical
# T1 sequence (P23141 18-567): B1 chain
# [1] = substrate: CCC(CC)COC(=O)[C@H](C)N[P@](=O)(OC[C@H]1O[C@@](C#N)(c2ccc3c(N)ncnn23)[C@H](O)[C@@H]1O)Oc1ccccc1; test: Michaelis-Menten kinetics of hydrolysis to GS-704277 in S9 fraction, HPLC; type: biochemical, Homo sapiens
Molecule,Ki (human carboxylesterase 1) [nM],Km [1] [µM]
C=C(C)[C@@H]1CCC(C)=C[C@H]1c1c(O)cc(CCCCC)cc1O [cannabidiol],890,–
B1,–,14.19
B2,–,93.94
